The values below are quoted from earlier work in patent US7276335B1, “Designing compounds specifically inhibiting ribonucleic acid function” (Massachusetts Institute of Technology, priority 1993, dated 2007).

Series [1] concerns sarcoma.
In series [2] the test system is eukaryotic 28 S rRNA. Particulars: cleaves one phosphodiester bond on the 3′ side of G-4325.
For series [3], the system named is normal cells as well as tumor cells. Particulars: too toxic for use clinically to treat tumors.

B1: α-sarcin: cytotoxic protein with potent antisarcoma activity, isolated from a mold, that inactivates ribosomes by cleaving the rRNA (protein, UniProt P00655 28-177, looked up)
Ribonuclease alpha-sarcin: AVTWTCLNDQKNPKTNKYETKRLLYNQNKAESNSHHAPLSDGKTGSSYPHWFTNGYDGDGKLPKGRTPIKFGKSDCDRPPKHSKDGNGKTDHYLLEFPTFPDGHDYKFDSKKPKENPGPARVIYTYPNKVFCGIIAHTKENQGELKLCSH
For the molecule B1, the antisarcoma activity entry in series [1] is “potent antisarcoma activity”. The “inactivation of ribosomes by rRNA cleavage” value in series [2] was “inactivates ribosomes by cleaving the rRNA”. In addition, the toxicity to cells result in series [3] is on record as “highly toxic to normal cells as well as tumor cells”.
